Assays:
[1] = tested on: soy protein; experiment: Release of free amino acids (FAA) in soy protein hydrolysis; type: biochemical, soy bean
Experimental: Hydrolysis was carried out on a 10 ml scale at 50° C. for 18 hours. The initial pH was 7 with no pH readjustment during hydrolysis. Inactivation of the enzyme was carried out at 85° C. for 3 minutes in a water bath. The substrate concentration was 2% protein from soy bean meal. The substrate was heat treated in a water bath at 85° C. for 3 minutes. The enzymes used with FLAVOURZYME 1000L™ and ALCALASE 2.4L® described above were crude Sphingomonas capsulata aminopeptidase I powder (see Example 1) and the purified Sphingomonas capsulata aminopeptidase I described in Example 4.
Hyp, methioninsulphonic acid, and Trp were not included in the Table due to very fluctuating and uncertain results.

[2] = Substrate specificity: initial rates of hydrolysis of para-nitroanilides; type: biochemical; settings: pH 7.5, 25° C.
Experimental: Stock solutions of 100 mg of each para-nitroanilide per ml of dimethylsulfoxide were diluted with 50 mM sodium phosphate pH 7.5 buffer to concentrations of 2 mg per ml. Where the substrates were incompletely soluble, their suspensions were used (shown with an asterisk in Table 2 below). The reaction of the Sphingomonas capsulata aminopeptidase I with each para-nitroanilide was initiated when a 10 μl aliquot of the enzyme solution in 50 mM sodium phosphate pH 7.0 buffer was added to 190 μl of a substrate solution in a 96 well microtiter plate. Analysis of initial rates of hydrolysis of the para-nitroanilides was monitored at 405 nm and 25° C. in a THERMOmax Microplate Reader (Molecular Devices Corp., Sunnyvale, Calif., USA).

[3] = Isoelectric point by activity staining method; type: physicochemical; settings: freshly prepared enzyme
Excerpt: The isoelectric point of the aminopeptidase is variable since the isoelectric point of the freshly prepared enzyme is estimated as 8.4 using an activity staining method, however, the isoelectric point varies from 7.4 to 8.5 during the course of purification and/or storage. The uncertainty of the isoelectric point may be due to the self digestion of the aminopeptidase from its amino terminal.

[4] = Specific activity in alanyl-aminopeptidase units (AAU); type: biochemical; settings: Ala-pNa, pH 7.5, 22° C.
Experimental: The aminopeptidase I dosages used were based on alanyl-aminopeptidase units (AAU) determined by the hydrolysis of Ala-pNa at pH 7.5. One AAU unit of the aminopeptidase I is defined as the quantity of an enzyme which hydrolyses 1.0 micromole of Ala-pNa per minute in a 9.1 mM solution of Ala-pNa at pH 7.5, 22° C., and ionic strength=0.05.
The specific activity of the purified aminopeptidase I was approximately 12 AAU/mg enzyme. Therefore, a dosage of 0.24 AAU per 200 mg soy protein, for example, corresponded to 0.1 g enzyme per kg soy protein.

[5] = 1.5% FLAVOURZYME +67 kDa AP versus 6.0% FLAVOURZYME

B1: Sphingomonas capsulata aminopeptidase I: purified aminopeptidase of 67 kDa from Sphingomonas capsulata IFO 12533; deduced amino acid sequence SEQ ID NO:2 (protein)
chain: MRKTPQGIGLLSALSTSTLALATLILAQPALAQVQPASNSRPMAVPIAHGVPDAQDVPYPGTIGLQIDATDLATGAFRVVETVPVAADAKELILQLPAWLPGEHGNRGPVAELAGITFEAKGQKLAWTRDPVEVNAFHIPLPAGTSEVVARFIHTSPLRDSEGRITVTREMLNVQWEKMSLYPAGHYVRQIKVRPTVSFPQGWTVFTALDGKTQSGAGNTVTWAETDYETLVDSPIFAGLYAARHDLGHNVYFDLVADKPELLAIKPENLAAYRNLADEAVGAFGARHFDHYDFLLALTDRMGSIGLEHHRSSENQQEPKSLTDWAAYDWDRNVIAHEFSHSWDGKYRRSAKLWTPDYRQPMQDNLLWVYEGQTQFWGLVLAARSGVQSKDVVLGSLANYAGTFTQTAGRDWRSVEDTTMDPIFAARKPKPYSSLTRNEDYYTEGALVWLEADQIIRDGTGGKKGLDDFAKAFFGVRDGDWGVLTYEFDDVVKTLNGVYPYDWATFLKTRLQTPGQPVPLGGIERGGYKLEFKDEPNPYDKARMADAKVLSLFNSLGVTLDKDGKVTASRWDGPAFKAGLVSGMQVMAVNGDAYDADKLKGAITNAKTGNPGAGRPIELLVKRDDRFVTLPITYADGLRWPWLVRTAPGTAPTGLDKLLAPHASKLPVGKAAK
- % Relative increase in FAA: Ala ([1]; 1.5% FLAVOURZYME +67 kDa AP): 130.3%
- % Relative increase in FAA: Arg ([1]; 1.5% FLAVOURZYME +67 kDa AP): 37.4%
- % Relative increase in FAA: Asn ([1]; 1.5% FLAVOURZYME +67 kDa AP): 32.3%
- % Relative increase in FAA: Asp ([1]; 1.5% FLAVOURZYME +67 kDa AP): 164.5%
- % Relative increase in FAA: Cys ([1]; 1.5% FLAVOURZYME +67 kDa AP): 12.6%
- % Relative increase in FAA: Gln ([1]; 1.5% FLAVOURZYME +67 kDa AP): 138.9%
- % Relative increase in FAA: Glu ([1]; 1.5% FLAVOURZYME +67 kDa AP): 145.9%
- % Relative increase in FAA: Gly ([1]; 1.5% FLAVOURZYME +67 kDa AP): 305.7%
- % Relative increase in FAA: His ([1]; 1.5% FLAVOURZYME +67 kDa AP): 30.3%
- % Relative increase in FAA: Ile ([1]; 1.5% FLAVOURZYME +67 kDa AP): 48.7%
- % Relative increase in FAA: Leu ([1]; 1.5% FLAVOURZYME +67 kDa AP): 35.2%
- % Relative increase in FAA: Lys ([1]; 1.5% FLAVOURZYME +67 kDa AP): 62.4%
- % Relative increase in FAA: Met ([1]; 1.5% FLAVOURZYME +67 kDa AP): −20.0%
- % Relative increase in FAA: Phe ([1]; 1.5% FLAVOURZYME +67 kDa AP): 41.8%
- % Relative increase in FAA: Pro ([1]; 1.5% FLAVOURZYME +67 kDa AP): 32.4%
- % Relative increase in FAA: Ser ([1]; 1.5% FLAVOURZYME +67 kDa AP): 69.3%
- % Relative increase in FAA: Thr ([1]; 1.5% FLAVOURZYME +67 kDa AP): 34.7%
- % Relative increase in FAA: Tyr ([1]; 1.5% FLAVOURZYME +67 kDa AP): 47.6%
- % Relative increase in FAA: Val ([1]; 1.5% FLAVOURZYME +67 kDa AP): 44.0%
- % Relative increase in FAA: total ([1]; 1.5% FLAVOURZYME +67 kDa AP): 64.5%
- % Relative increase in FAA: Ala [1, 5]: 27.3%
- % Relative increase in FAA: Arg [1, 5]: −2.9%
- % Relative increase in FAA: Asn [1, 5]: −15.2%
- % Relative increase in FAA: Asp [1, 5]: 24.2%
- % Relative increase in FAA: Cys [1, 5]: 6.3%
- % Relative increase in FAA: Gln [1, 5]: 9.9%
- % Relative increase in FAA: Glu [1, 5]: 28.7%
- % Relative increase in FAA: Gly [1, 5]: 90.6%
- % Relative increase in FAA: His [1, 5]: −6.8%
- % Relative increase in FAA: Ile [1, 5]: −21.0%
- % Relative increase in FAA: Leu [1, 5]: −9.1%
- % Relative increase in FAA: Lys [1, 5]: −1.4%
- % Relative increase in FAA: Met [1, 5]: −46.7%
- % Relative increase in FAA: Phe [1, 5]: −4.5%
- % Relative increase in FAA: Pro [1, 5]: −39.7%
- % Relative increase in FAA: Ser [1, 5]: 12.5%
- % Relative increase in FAA: Thr [1, 5]: −18.3%
- % Relative increase in FAA: Tyr [1, 5]: −6.9%
- % Relative increase in FAA: Val [1, 5]: −17.7%
- % Relative increase in FAA: total [1, 5]: 0.0%
- % Relative increase in FAA: Ala ([1]; 6.0% FLAVOURZYME +67 kDa AP): 36.5%
- % Relative increase in FAA: Arg ([1]; 6.0% FLAVOURZYME +67 kDa AP): −31.4%
- % Relative increase in FAA: Asn ([1]; 6.0% FLAVOURZYME +67 kDa AP): 7.6%
- % Relative increase in FAA: Asp ([1]; 6.0% FLAVOURZYME +67 kDa AP): 24.8%
- % Relative increase in FAA: Cys ([1]; 6.0% FLAVOURZYME +67 kDa AP): 9.5%
- % Relative increase in FAA: Gln ([1]; 6.0% FLAVOURZYME +67 kDa AP): 28.1%
- % Relative increase in FAA: Glu ([1]; 6.0% FLAVOURZYME +67 kDa AP): 31.3%
- % Relative increase in FAA: Gly ([1]; 6.0% FLAVOURZYME +67 kDa AP): 92.9%
- % Relative increase in FAA: His ([1]; 6.0% FLAVOURZYME +67 kDa AP): 7.5%
- % Relative increase in FAA: Ile ([1]; 6.0% FLAVOURZYME +67 kDa AP): 7.2%
- % Relative increase in FAA: Leu ([1]; 6.0% FLAVOURZYME +67 kDa AP): 5.2%
- % Relative increase in FAA: Lys ([1]; 6.0% FLAVOURZYME +67 kDa AP): 13.8%
- % Relative increase in FAA: Met ([1]; 6.0% FLAVOURZYME +67 kDa AP): 21.1%
- % Relative increase in FAA: Phe ([1]; 6.0% FLAVOURZYME +67 kDa AP): 7.2%
- % Relative increase in FAA: Pro ([1]; 6.0% FLAVOURZYME +67 kDa AP): −11.5%
- % Relative increase in FAA: Ser ([1]; 6.0% FLAVOURZYME +67 kDa AP): 41.7%
- % Relative increase in FAA: Thr ([1]; 6.0% FLAVOURZYME +67 kDa AP): 2.4%
- % Relative increase in FAA: Tyr ([1]; 6.0% FLAVOURZYME +67 kDa AP): 8.5%
- % Relative increase in FAA: Val ([1]; 6.0% FLAVOURZYME +67 kDa AP): 6.3%
- % Relative increase in FAA: total ([1]; 6.0% FLAVOURZYME +67 kDa AP): 10.3%
- Relative activity (%) ([2]; Ala p-nitroanilide): 100%
- Relative activity (%) ([2]; Asp p-nitroanilide): 4.5%
- Relative activity (%) ([2]; Glu* p-nitroanilide (suspension)): 6%
- Relative activity (%) ([2]; Gly* p-nitroanilide (suspension)): 20%
- Relative activity (%) ([2]; Ile p-nitroanilide): 0.5%
- Relative activity (%) ([2]; Leu p-nitroanilide): 18.5%
- Relative activity (%) ([2]; Lys p-nitroanilide): 6%
- Relative activity (%) ([2]; Met p-nitroanilide): 24%
- Relative activity (%) ([2]; Phe* p-nitroanilide (suspension)): 0%
- Relative activity (%) ([2]; Pro p-nitroanilide): 0%
- Relative activity (%) ([2]; Val p-nitroanilide): 0.5%
- isoelectric point [3]: ~8.4
- specific activity [4]: approximately 12 AAU/mg enzyme

Reference: patent US6673571B2, “Polypeptides having aminopeptidase activity and nucleic acids encoding same” (Novozymes Biotech, Inc., priority 1997, dated 2004)
